In the supplement of paper PMC12764529:
± gives the half width of the 95% confidence interval.

Tests used:
[1] = folding stability dG unfold from trypsin proteolysis; higher = more stable
Outline: (§1)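 Digests were run with trypsin and chymotrypsin at 11 concentrations in threefold dilutions, plus a no-protease condition, on designed mini-proteins in a PA-tagged cDNA display construct. The mini-proteins were under 80 residues, had no cysteine, and were kept only when AlphaFold2 dimer inter-PAE was above 15. After sequencing, Bayesian fitting of the counts gave K50, from which unfolding free energy was derived against a sequence-predicted unfolded-state K50 and a shared folded-state K50, per protease or combined.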

[2] = folding stability dG unfold (combined trypsin and chymotrypsin); higher = more stable
Outline: as §1

[3] = folding stability dG unfold from chymotrypsin proteolysis; higher = more stable
Outline: as §1

Sequence: SAGGSAGGSAGRMLVIEIEMPGRKRTFMIPTPDGPPIKAEELADKLGFDNVTVKIHPIDDSAGGSAGGSAGG [r11_219_TrROS]
- folding stability dG unfold [1]: -0.12 ± 0.55 kcal/mol
- folding stability dG unfold [2]: 0.0664 ± 0.16 kcal/mol
- folding stability dG unfold [3]: 0.261 ± 0.31 kcal/mol

Sequence: SAGGSAGGSAGRRRVFFTPDGTLIVVDELPDFVRVTRYRITPGFPRIEPVDTRVLPPGALSAGGSAGGSAGG [r11_844_TrMRF]
- folding stability dG unfold [1]: 1.11 ± 0.18 kcal/mol
- folding stability dG unfold [2]: 2.25 ± 0.16 kcal/mol
- folding stability dG unfold [3]: 2.94 ± 0.086 kcal/mol

Sequence: SAGGSAGGSAGSITFTVPASEFTEEEILERLVEELGIPREKVDLVEIKETPDGKLKVTIKIPSAGGSAGGSA [r18_118_JUSTAS]
- folding stability dG unfold [1]: 2.86 ± 0.085 kcal/mol
- folding stability dG unfold [2]: 2.63 ± 0.06 kcal/mol
- folding stability dG unfold [3]: 2.488 ± 0.021 kcal/mol

Sequence: SAGGSAGGSAGSITLPDGLTLTWNPATNTLTITLTAPPPPTTTTTTKPAATTTTTTTTTTSAGGSAGGSAGG [r11_331_TrROS_Hall]
- folding stability dG unfold [1]: 2.18 ± 0.086 kcal/mol
- folding stability dG unfold [2]: 1.87 ± 0.14 kcal/mol
- folding stability dG unfold [3]: 1.77 ± 0.092 kcal/mol

Sequence: SAGGSAGGSAGSIVLTKTEILPGPENRPIIKTTIYKPPGPITITYPGGDPSKLVIETNSGSAGGSAGGSAGG [r17_64_JUSTAS]
- folding stability dG unfold [1]: 0.247 ± 0.032 kcal/mol
- folding stability dG unfold [2]: 0.0213 ± 0.28 kcal/mol
- folding stability dG unfold [3]: -0.331 ± 0.37 kcal/mol

Sequence: SAGGSAGGSAGSIVTIPIAGLSPEEAEALIKEAIAAGEDKPIILVDEDGTPTVVPASELKSAGGSAGGSAGG [r11_541_JUSTAS]
- folding stability dG unfold [1]: -0.189 ± 0.052 kcal/mol
- folding stability dG unfold [2]: -0.242 ± 0.079 kcal/mol
- folding stability dG unfold [3]: -0.408 ± 0.035 kcal/mol

Sequence: SAGGSAGGSAGSKTIEVVIPVKPNELTPEQAENLIKPFFPDAKIEVTPEGNYLVVKVEVSSAGGSAGGSAGG [r11_7_TrMRF]
- folding stability dG unfold [1]: 0.475 ± 0.11 kcal/mol
- folding stability dG unfold [2]: 0.366 ± 0.18 kcal/mol
- folding stability dG unfold [3]: 0.334 ± 0.067 kcal/mol

Sequence: SAGGSAGGSAGSKTPSVLVIEVDANTSIEKILELYKKNYPVGEIRVFTRPDGRKIAVITGSAGGSAGGSAGG [r11_97_TrMRF]
- folding stability dG unfold [1]: 2.22 ± 0.028 kcal/mol
- folding stability dG unfold [2]: 2.31 ± 0.12 kcal/mol
- folding stability dG unfold [3]: 2.33 ± 0.069 kcal/mol

Sequence: SAGGSAGGSAGSMFMIMIEYDPPGYIKVSINRYKMGPDGDFEPVEPETHEIPIPPGQPFFSAGGSAGGSAGG [r11_440_TrROS]
- folding stability dG unfold [1]: 1.91 ± 0.14 kcal/mol
- folding stability dG unfold [2]: 2.3 ± 0.17 kcal/mol
- folding stability dG unfold [3]: 2.36 ± 0.13 kcal/mol

Sequence: SAGGSAGGSAGSMLTTTLPNGTPVTREFDIQDVEPKGDVIKVVITNPTGGEVPASTVIGPVNSAGGSAGGSA [r18_163_JUSTAS]
- folding stability dG unfold [1]: 0.412 ± 0.051 kcal/mol
- folding stability dG unfold [2]: 0.657 ± 0.081 kcal/mol
- folding stability dG unfold [3]: 0.757 ± 0.03 kcal/mol

Sequence: SAGGSAGGSAGSMSLPVTELVVESVDPLEGVLVVKVKGTLPDGSEVELTLEFKPDEPLELSAGGSAGGSAGG [r11_211_JUSTAS]
- folding stability dG unfold [1]: 0.992 ± 0.043 kcal/mol
- folding stability dG unfold [2]: 0.71 ± 0.11 kcal/mol
- folding stability dG unfold [3]: 0.375 ± 0.066 kcal/mol

Sequence: SAGGSAGGSAGSMTVTVTGGGVSVEVYPETGLVRVRSPSGSETLVDIATGEVVRREPAAASAGGSAGGSAGG [r11_149_JUSTAS]
- folding stability dG unfold [1]: 0.631 ± 0.047 kcal/mol
- folding stability dG unfold [2]: 0.781 ± 0.066 kcal/mol
- folding stability dG unfold [3]: 0.872 ± 0.029 kcal/mol

Sequence: SAGGSAGGSAGSNKVVTFVPRDPATGAPLGERPIPINSSSGSEIESIKKELPPEVVEIVESAGGSAGGSAGG [r17_339_JUSTAS]
- folding stability dG unfold [1]: 0.605 ± 0.044 kcal/mol
- folding stability dG unfold [2]: 1.01 ± 0.066 kcal/mol
- folding stability dG unfold [3]: 1.15 ± 0.02 kcal/mol

Sequence: SAGGSAGGSAGSSILSVVEEDPETGLRVVLSPVSDVPVRIVTKRIPEKEEIKVLEVERLPSAGGSAGGSAGG [r11_1066_JUSTAS]
- folding stability dG unfold [1]: -0.603 ± 0.38 kcal/mol
- folding stability dG unfold [2]: -0.746 ± 0.43 kcal/mol
- folding stability dG unfold [3]: -0.758 ± 0.37 kcal/mol

Sequence: SAGGSAGGSAGSSMTTVTVTITDTGSGKTTTTELDVPVSEVQAVIDELSPSPTLTITVVQSAGGSAGGSAGG [r17_50_JUSTAS]
- folding stability dG unfold [1]: 1.84 ± 0.049 kcal/mol
- folding stability dG unfold [2]: 1.64 ± 0.043 kcal/mol
- folding stability dG unfold [3]: 1.51 ± 0.028 kcal/mol

Sequence: SAGGSAGGSAGSSSISRETFDPETGLRYVYDPETDTITVIDLSNNKVVKTTPVGPEELERSAGGSAGGSAGG [r17_271_JUSTAS]
- folding stability dG unfold [1]: 0.244 ± 0.068 kcal/mol
- folding stability dG unfold [2]: 1.55 ± 0.07 kcal/mol
- folding stability dG unfold [3]: 1.95 ± 0.022 kcal/mol

Sequence: SAGGSAGGSAGSVIVTSTTSTLPNGTVVTNETVSDPSNPGVTTKKTSTTYPDGSVTTTESSAGGSAGGSAGG [r11_483_JUSTAS]
- folding stability dG unfold [1]: 0.213 ± 0.043 kcal/mol
- folding stability dG unfold [2]: 1.36 ± 0.057 kcal/mol
- folding stability dG unfold [3]: 1.73 ± 0.047 kcal/mol

Sequence: SAGGSAGGSAGSVTITRDYPTPDGTRTTVTITFPSLERSPSVKYKLVSVSPDGNYVLSPESAGGSAGGSAGG [r11_733_JUSTAS]
- folding stability dG unfold [1]: 2.11 ± 0.18 kcal/mol
- folding stability dG unfold [2]: 1.91 ± 0.28 kcal/mol
- folding stability dG unfold [3]: 1.61 ± 0.17 kcal/mol
